# Measured values from article PMC6377645, “Structural insights into chaperone addiction of toxin-antitoxin systems” (Nature Communications, 2019).
# “And” between values parts separate entries of the source, which are not always exact repeats. Identical values can stand only once.
# B1: ChAD peptide, Mtb-HigA1(104-116) (peptide)
# peptide: EVPTWHRLSSYRG
# notes: residues 104-116 of the antitoxin Mtb-HigA1 of Mycobacterium tuberculosis (chaperone addiction region); also called C4; 13-mer ChAD peptide
# B2: Mtb-SecB^TA chaperone (Rv1957), His6-tag removed (natural protein)
# chain: MTDRTDADDLDLQRVGARLAARAQIRDIRLLRTQAAVHRAPKPAQGLTYDLEFEPAVDADPATISAFVVRISCHLRIQNQAADDDVKEGDTKDETQDVATADFEFAALFDYHLQEGEDDPTEEELTAYAATTGRFALYPYIREYVYDLTGRLALPPLTLEILSRPMPVSPGAQWPATRGTP
# notes: SecB-like chaperone Mtb-SecB^TA (Rv1957) of Mycobacterium tuberculosis, 181 amino acids; untagged mass printed as 20,388 Da; Residues of the pET15b vector may remain after thrombin cleavage (surmised from the printed mass); For MST the protein was labelled with the dye NT-647; also called SecB-like chaperone; TA-associated SecB chaperone; not shown: His6, N-terminal, cleaved
# Columns and labels:
# [1] = target: B2; test: native MS; Mtb-SecB^TA/HigA1 9.7 µM (hexamer) in 200 mM ammonium acetate pH 7, with 0 to 16 ChAD peptide molecules per hexamer; settings: both partners purified
# [2] = target: the molecule itself; test: SEC-MALS; Superdex 200 Increase 5/150; 20 mM MES, 200 mM NaCl, pH 6.5; 15 °C; Mtb-SecB^TA 49.1 µM, Mtb-SecB^TA/HigA1 6.5 µM, Mtb-HigA1^ΔC42 100 µM
# [3] = target: B2; test: as above; settings: both partners purified
# [4] = target: B2; test: native MS; Mtb-SecB^TA 11.8 µM (tetramer) in 200 mM ammonium acetate pH 7, titrated with ChAD peptide at molar ratios 0 to 20 per tetramer; control peptides C2, C3, C7 at 8 peptides per tetramer; Kd fitted with UniDec, 4 sites, all KD's free; settings: both partners purified
# [5] = target: B2; test: ITC; ChAD peptide (80-620 µM) injected into Mtb-SecB^TA (18-48 µM) in the cell; 12 °C; 20 mM MES, 200 mM NaCl, pH 6.5; one set of sites; Kd and enthalpy printed once for direct and reverse conditions; settings: both partners purified
# [6] = target: B2; test: MST; 100 nM NT-647-labelled Mtb-SecB^TA with 3 nM to 100 µM ChAD peptide; 20 mM MES, 200 mM NaCl, 0.025% Tween 20, pH 6.5; 22 °C; settings: both partners purified
# [7] = target: B1; test: ITC; reverse conditions (protocol of the reverse titration not described); 12 °C; 20 mM MES, 200 mM NaCl, pH 6.5; settings: both partners purified
# SEC-MALS = target: the molecule itself; test: SEC-MALS
binder,measurement,setting,value
"Mtb-HigA1 antitoxin, full length, untagged (natural protein, antitoxin HigA1 of the TAC system of Mycobacterium tuberculosis, untagged; Obtained only in complex with Mtb-SecB^TA (4:2 hetero-hexamer); also called TAC antitoxin) MSIDFPLGDDLAGYIAEAIAADPSFKGTLEDAEEARRLVDALIALRKHCQLSQVEVAKRMGVRQPTVSGFEKEPSDPKLSTLQRYARALDARLRLVLEVPTLREVPTWHRLSSYRGSARDHQVRVGADKEILMQTNWARHISVRQVEVA",stoichiometry N,[1],0.5 HigA1 chains per SecB^TA chain (printed as 4:2 Mtb-SecB^TA/HigA1)
same,stoichiometry N,[2],2
same,stoichiometry N,[3],0.5 HigA1 chains per SecB^TA chain (printed as 4:2 chaperone/antitoxin)
B1,"Kd of the single binding events (four sites fitted, all KD's free)",[4],6000 to 17000 nM
same,stoichiometry N,[4],≤ 4 peptides per tetramer
same,Kd,[5],1900 ± 200 nM
same,dH,[5],-12 kcal/mol
same,stoichiometry N,[5],0.47
same,Kd,[6],2600 ± 600 nM
B2,stoichiometry N,[7],2.2
same,stoichiometry N,[2],4
"Mtb-SecB^TA with a N-terminal His6-tag (before thrombin cleavage) (natural protein, SecB-like chaperone Mtb-SecB^TA (Rv1957) of Mycobacterium tuberculosis, 181 amino acids; also called His6-Mtb-SecB^TA; not shown: His6, N-terminal, kept) MTDRTDADDLDLQRVGARLAARAQIRDIRLLRTQAAVHRAPKPAQGLTYDLEFEPAVDADPATISAFVVRISCHLRIQNQAADDDVKEGDTKDETQDVATADFEFAALFDYHLQEGEDDPTEEELTAYAATTGRFALYPYIREYVYDLTGRLALPPLTLEILSRPMPVSPGAQWPATRGTP",stoichiometry N,SEC-MALS,8 and 4
